{
  "source": "paper PMC11626198",
  "about": "“Molecular insights into the interaction between a disordered protein and a folded RNA”",
  "biological_target": "T1, SERF (Small ERDK-Rich Factor) (Saccharomyces cerevisiae, UniProt Q3E7B7)",
  "T1 sequence": "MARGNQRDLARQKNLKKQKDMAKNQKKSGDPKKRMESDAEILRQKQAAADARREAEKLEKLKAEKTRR",
  "assay": "fluorescence anisotropy; 1:1 model, KD,app; Anisotropy buffer not given in the material; NMR at 27 C; native IM-MS in 100 mM ammonium acetate pH 7.5",
  "settings": "protein: recombinant, tags: His6-SUMO removed by ULP1 (scarless)",
  "data": [
    {"binder": "GGCAGAUCUGAGCCUGGGAGCUCUCUGCC (structured_RNA)", "note": "[FAM-TAR]", "values": [
      {"measurement": "Kd", "setting": "hairpin with UCU bulge and hexanucleotide loop", "value": "670 ± 40", "unit": "nM"}
    ]},
    {"binder": "UUUUUUUUUUUUUUUUUUUUUUUUUUUUUU (ssRNA)", "note": "[FAM-(rU)30]", "values": [
      {"measurement": "Kd", "setting": "single strand", "value": "1900 ± 200", "unit": "nM"}
    ]}
  ]
}
